Experimental data from patent US20240343811A1 (SHANDONG SIMCERE BIOPHARMACUTICAL, published 2024).

T1: human CD16b (NA1), full length, on FlpinCHO cells (human, UniProt O75015 17-200)
T1 construct: also called FlpinCHO-human CD16b (NA1)
T1 chain: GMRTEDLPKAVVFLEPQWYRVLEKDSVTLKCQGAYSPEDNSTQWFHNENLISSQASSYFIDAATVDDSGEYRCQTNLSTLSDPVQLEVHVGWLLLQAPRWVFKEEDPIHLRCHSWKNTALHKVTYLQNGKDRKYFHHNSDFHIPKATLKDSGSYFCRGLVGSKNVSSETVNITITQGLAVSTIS

T2: human CD16b (NA2), full length, on FlpinCHO cells (human, UniProt O75015 17-200)
T2 construct: also called FlpinCHO-human CD16b (NA2)
T2 chain: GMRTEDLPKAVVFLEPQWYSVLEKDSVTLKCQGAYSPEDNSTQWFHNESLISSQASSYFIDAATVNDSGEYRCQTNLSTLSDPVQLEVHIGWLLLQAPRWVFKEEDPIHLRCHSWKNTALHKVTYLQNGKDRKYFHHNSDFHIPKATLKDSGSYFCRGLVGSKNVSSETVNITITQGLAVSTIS


Assays:
[1] = target: T1, human CD16b (NA1), full length, on …; assay: FACS on FlpinCHO cells
Experimental: (§1) The required cells were scale-up cultured in a T-75 cell culture flask to the logarithmic growth phase. The medium was aspirated, and the cells were washed twice with a PBS buffer and then digested with trypsin. After the digestion was terminated, the cells were washed twice with the PBS buffer. The cells were counted, and then the cell pellet was resuspended with a [PBS+2% (w/w) BSA] blocking solution to 2×10⁶ cells/ml, and added to a 96-well FACS reaction plate at 50 μl/well. […] 50 μl/well of the antibody to be detected was added at different concentrations, and incubated on ice for 1 hour. […] The mixture was centrifuged and washed 5 times with PBS, and FACS (FACS Canto II, purchased from BD Company) was used for detection and result analysis. Data analysis was performed by software (CellQuest) to obtain the mean fluorescence intensity (MFI) of the cells. Then, software (GraphPad Prism8) was used for analysis, data fitting and EC50 value calculation.
(§2) The binding of an antibody to be detected to FlpinCHO-human CD16b cells was detected according to the method of Example 3.1.

[2] = target: T2, human CD16b (NA2), full length, on …; assay: FACS on FlpinCHO cells
Experimental: as §1, §2

[3] = target: T3, human CD16a (158V), full length, on cells (human, UniProt P08637 17-254); assay: cell-based or functional assay
T3 sequence (P08637 17-254 F176V limits assumed): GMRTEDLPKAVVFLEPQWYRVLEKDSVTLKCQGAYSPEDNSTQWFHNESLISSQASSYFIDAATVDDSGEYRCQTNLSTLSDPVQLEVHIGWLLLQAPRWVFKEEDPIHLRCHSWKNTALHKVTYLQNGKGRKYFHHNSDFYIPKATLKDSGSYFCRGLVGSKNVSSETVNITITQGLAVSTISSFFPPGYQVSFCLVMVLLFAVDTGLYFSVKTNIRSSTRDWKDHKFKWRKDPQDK

[4] = target: T3, human CD16a (158V), full length, on …; assay: FACS on FlpinCHO cells
Experimental: as §1
(§3) The binding of a humanized antibody to FlpinCHO-human CD16a cells was detected according to the method of Example 3.1.

[5] = target: human CD16a (158F), full length, on FlpinCHO cells (human, UniProt P08637 17-254); assay: FACS on FlpinCHO cells
Sequence of human CD16a (158F), full length, on FlpinCHO cells (P08637 17-254 limits assumed): as the sequence (P08637 17-254 F176V limits assumed) above, with V160F counted along it
Experimental: as §1, §3

Human CD16a (158F)-his = target: T4, Human CD16a (158F)-his (human); assay: SPR (Biacore), antibody captured on Protein A
T4 construct: entry holds ECD, AVI tag, linker and His tag
T4 sequence (chain, as listed by the source limits assumed): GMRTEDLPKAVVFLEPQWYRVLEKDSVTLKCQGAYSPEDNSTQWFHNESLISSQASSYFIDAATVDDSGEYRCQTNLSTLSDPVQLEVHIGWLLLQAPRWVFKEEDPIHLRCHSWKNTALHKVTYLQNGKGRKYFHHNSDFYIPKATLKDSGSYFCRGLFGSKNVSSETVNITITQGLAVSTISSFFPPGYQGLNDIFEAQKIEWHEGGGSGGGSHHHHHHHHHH
Experimental: A sample buffer and a running buffer were HBS-EP+ (10 mM HEPES, 150 mM NaCl, 3 mM EDTA and 0.05% surfactant P20) (GE Healthcare; BR-1006-69). The flow-through cell was set to 25° C. The sample block was set to 16° C. Both were pretreated with the running buffer. In each cycle, an antibody to be detected was first captured with a Protein A chip, and then a single concentration of CD16 antigen protein was injected. The binding and dissociation processes of the antibody and the antigen protein were recorded, and finally Glycine pH 1.5 (GE Healthcare; BR-1003-54) was used to complete chip regeneration. Binding was measured by injecting different concentrations of recombinant human CD16-ECD his proteins in a solution for 240 s with a flow rate of 30 μL/min, wherein a total of 5 concentrations were prepared by using 200 nM as a starting concentration (see the detailed results for the actual concentration in the test) and performing a 1:1 dilution. The dissociation phase was monitored for up to 600 s and was triggered by switching from a sample solution to a running buffer. The surface was regenerated by washing with a 10 mM glycine solution (pH 1.5) for 30 s at a flow rate of 30 μL/min. Bulk refractive index difference was corrected by subtracting the response obtained from the goat anti-human Fc surface. Blank injection was also subtracted (=double reference). For calculation of apparent KD and other kinetic parameters, Langmuir 1:1 model was used.

Row | EC50 [1] | Maximum mean fluorescence intensity [1] | Maximum mean fluorescence intensity [2] | binding result [2] | EC50, activation activity for Jurkat cell [3] | Maximum fluorescence value [3] | EC50 [4] | Maximum mean fluorescence intensity [4] | EC50 [5] | Maximum mean fluorescence intensity [5] | Kd (Human CD16a (158F)-his) | koff (Human CD16a (158F)-his) | kon (Human CD16a (158F)-his) | Binder
1 | 250 pM | 59800 | 204 | no binding (tested: 100 nM) | 10 pM | 167000 | 280 pM | 8240 | 300 pM | 8930 | 24600 pM | 0.00116 s⁻¹ | 47100 M⁻¹ s⁻¹ | VHH06-06 humanized VHH-Fc antibody (Fc fusion) EVQLVESGGGVVQPGGSLRLSCAASGSTWTTYAVRWYRQAPGKQREWVAFISVDGSTNYADSVKGRFTVSRDNSKNTVYLQMNSLRAEDTADYICRVGGQYWGQGTMVTVSSEPKSSDKTHTCPPCPAPEEFGGPSVFLFPPKPKDTLMISRTPEVTCVVVAVSHEDPEVKFNWYVDGVEVHNAKTKPREEQYNSTYRVVSVLTVLHQDWLNGKEYKCKVSNKALPAPIEKTISKAKGQPREPQVYTLPPSREEMTKNQVSLTCLVKGFYPSDIAVEWESNGQPENNYKTTPPVLDSDGSFFLYSKLTVDKSRWQQGNVFSCSVMHEALHNHYTQKSLSLSPGK
2 | 330 pM | 53500 | 167 | no binding (tested: 100 nM) | 20 pM | 173000 | 500 pM | 8460 | 500 pM | 9160 | 32100 pM | 0.00139 s⁻¹ | 43100 M⁻¹ s⁻¹ | VHH06-07 humanized VHH-Fc antibody (Fc fusion) EVQLVESGGGVVQPGGSLRLSCAASGSTWTTYAVRWYRQAPGKQREWVAFISVDGSTNYADSVKGRFTISRDNSKNTVYLQMNSLRAEDTADYICRVGGQYWGQGTQVTVSSEPKSSDKTHTCPPCPAPEEFGGPSVFLFPPKPKDTLMISRTPEVTCVVVAVSHEDPEVKFNWYVDGVEVHNAKTKPREEQYNSTYRVVSVLTVLHQDWLNGKEYKCKVSNKALPAPIEKTISKAKGQPREPQVYTLPPSREEMTKNQVSLTCLVKGFYPSDIAVEWESNGQPENNYKTTPPVLDSDGSFFLYSKLTVDKSRWQQGNVFSCSVMHEALHNHYTQKSLSLSPGK
